{"source": "patent US20210393713A1", "about": "(published 2021)", "binders": {"B1": {"name": "LY6A as used in SPR (immobilized on the sensor chip, or monomeric in solution) (receptor)", "chain": "LECYQCYGVPFETSCPSITCPYPDGVCVTQEAAVIVDSQTRKVKNNLCLPICPPNIESMEILGTKVNVKTSCCQEDLCNVAVPNG"}}, "biological_target": "AAV-PHP.B capsid (AAV9 variant with the […] insert)", "experiment": "SPR", "data": [{"binder": "B1", "values": [{"measurement": "Kd", "result": 0.119, "unit": "nM"}]}]}
